Square brackets hold non-standard residues; d marks the D form. Ends that are not written are not given here. * marks the point of attachment. Benzoyl(3-OMe) = COc1cccc(C(=O)*)c1; Benzoyl(4-OMe) = COc1ccc(C(=O)*)cc1; d2Thi = N[C@H](Cc1cccs1)C(=O)O; dNal = D-naphthylalanine
Target: MC receptor endogenous to Xenopus laevis melanophores (Xenopus laevis)
Assay: cell-based or functional assay

B1: SQW-4 (peptide)
peptide: {Benzoyl(4-OMe)}-[dR][dR]I[dR]P[dK][dL]-NH2
SMILES: CC[C@H](C)[C@H](NC(=O)[C@@H](CCCNC(=N)N)NC(=O)[C@@H](CCCNC(=N)N)NC(=O)c1ccc(OC)cc1)C(=O)N[C@H](CCCNC(=N)N)C(=O)N1CCC[C@H]1C(=O)N[C@H](CCCCN)C(=O)N[C@H](CC(C)C)C(N)=O
B1 showed an MCR IC50 nM: antagonism of α-MSH (600 pM) darkening of frog melanophores of 17 nM.

B2: xenopsin (peptide, UniProt P07198 74-81, looked up)
peptide: QGKRPWIL
modifications: ends and bridges not checked
B2 was tested, and the IC50 in the frog MCR assay was over 10000 nM.

B3: S-164 (peptide)
peptide: {Benzoyl(4-OMe)}-RKLL[dA]I[dL]-NH2
SMILES: CC[C@H](C)[C@H](NC(=O)[C@@H](C)NC(=O)[C@H](CC(C)C)NC(=O)[C@H](CC(C)C)NC(=O)[C@H](CCCCN)NC(=O)[C@H](CCCNC(=N)N)NC(=O)c1ccc(OC)cc1)C(=O)N[C@H](CC(C)C)C(N)=O
B3 showed an MCR Antagonism IC50 nM In Xenopus of 26 nM.

B4: SQW-3 (peptide)
peptide: {Benzoyl(4-OMe)}-R[dR]I[dR]P[dK][dL]-NH2
SMILES: CC[C@H](C)[C@H](NC(=O)[C@@H](CCCNC(=N)N)NC(=O)[C@H](CCCNC(=N)N)NC(=O)c1ccc(OC)cc1)C(=O)N[C@H](CCCNC(=N)N)C(=O)N1CCC[C@H]1C(=O)N[C@H](CCCCN)C(=O)N[C@H](CC(C)C)C(N)=O
In the case of B4, the MCR IC50 nM: antagonism of α-MSH (600 pM) darkening of frog melanophores is reported as 156 nM.

B5: SQW-11 (peptide)
peptide: {Benzoyl(3-OMe)}-RRIRAKL-NH2
SMILES: CC[C@H](C)[C@H](NC(=O)[C@H](CCCNC(=N)N)NC(=O)[C@H](CCCNC(=N)N)NC(=O)c1cccc(OC)c1)C(=O)N[C@@H](CCCNC(=N)N)C(=O)N[C@@H](C)C(=O)N[C@@H](CCCCN)C(=O)N[C@@H](CC(C)C)C(N)=O
Work on B5 yielded an MCR IC50 nM: antagonism of α-MSH (600 pM) darkening of frog melanophores of 188 nM.

B6: S-163 (peptide)
peptide: {Benzoyl(4-OMe)}-RKLL[d2Thi]A[dL]-NH2
SMILES: COc1ccc(C(=O)N[C@@H](CCCNC(=N)N)C(=O)N[C@@H](CCCCN)C(=O)N[C@@H](CC(C)C)C(=O)N[C@@H](CC(C)C)C(=O)N[C@H](Cc2cccs2)C(=O)N[C@@H](C)C(=O)N[C@H](CC(C)C)C(N)=O)cc1
B6 was tested, and the MCR Antagonism IC50 nM In Xenopus was 234 nM.

B7: Ac-Arg-Tyr-Tyr-Arg-D-Trp-Lys-NH2 (peptide)
peptide: Ac-RYYR[dW]K-NH2
SMILES: CC(=O)N[C@@H](CCCNC(=N)N)C(=O)N[C@@H](Cc1ccc(O)cc1)C(=O)N[C@@H](Cc1ccc(O)cc1)C(=O)N[C@@H](CCCNC(=N)N)C(=O)N[C@H](Cc1c[nH]c2ccccc12)C(=O)N[C@@H](CCCCN)C(N)=O
In the case of B7, the IC50 nM in Frog Melanophore Assay is reported as 867 nM.

B8: human CRH (peptide, UniProt P06850 154-194, looked up)
peptide: SEEPPISLDLTFHLLREVLEMARAEQLAQQAHSNRKLMEII
With B8 the IC50 in the frog MCR assay was 10000 nM.

B9: p-Anisoyl-Arg-Tyr-Tyr-Arg-D-Trp-Lys-NH2 (peptide)
peptide: {Benzoyl(4-OMe)}-RYYR[dW]K-NH2
SMILES: COc1ccc(C(=O)N[C@@H](CCCNC(=N)N)C(=O)N[C@@H](Cc2ccc(O)cc2)C(=O)N[C@@H](Cc2ccc(O)cc2)C(=O)N[C@@H](CCCNC(=N)N)C(=O)N[C@H](Cc2c[nH]c3ccccc23)C(=O)N[C@@H](CCCCN)C(N)=O)cc1
In the case of B9, the IC50 nM in Frog Melanophore Assay is reported as 175 nM.

B10: S-166 (peptide)
peptide: {Benzoyl(4-OMe)}-RALL[d2Thi]I[dL]-NH2
SMILES: CC[C@H](C)[C@H](NC(=O)[C@@H](Cc1cccs1)NC(=O)[C@H](CC(C)C)NC(=O)[C@H](CC(C)C)NC(=O)[C@H](C)NC(=O)[C@H](CCCNC(=N)N)NC(=O)c1ccc(OC)cc1)C(=O)N[C@H](CC(C)C)C(N)=O
B10 showed an MCR Antagonism IC50 nM In Xenopus of 1200 nM.

B11: SQW-7 (peptide)
peptide: {Benzoyl(3-OMe)}-ARIRPKL-NH2
SMILES: CC[C@H](C)[C@H](NC(=O)[C@H](CCCNC(=N)N)NC(=O)[C@H](C)NC(=O)c1cccc(OC)c1)C(=O)N[C@@H](CCCNC(=N)N)C(=O)N1CCC[C@H]1C(=O)N[C@@H](CCCCN)C(=O)N[C@@H](CC(C)C)C(N)=O
Work on B11 yielded an MCR IC50 nM: antagonism of α-MSH (600 pM) darkening of frog melanophores of 110 nM.

B12: SQW-10 (peptide)
peptide: {Benzoyl(3-OMe)}-RRIAPKL-NH2
SMILES: CC[C@H](C)[C@H](NC(=O)[C@H](CCCNC(=N)N)NC(=O)[C@H](CCCNC(=N)N)NC(=O)c1cccc(OC)c1)C(=O)N[C@@H](C)C(=O)N1CCC[C@H]1C(=O)N[C@@H](CCCCN)C(=O)N[C@@H](CC(C)C)C(N)=O
In the case of B12, the MCR IC50 nM: antagonism of α-MSH (600 pM) darkening of frog melanophores is reported as 187 nM.

B13: S-118 (peptide)
peptide: {Benzoyl(4-OMe)}-AKLL[d2Thi]I[dL]-NH2
SMILES: CC[C@H](C)[C@H](NC(=O)[C@@H](Cc1cccs1)NC(=O)[C@H](CC(C)C)NC(=O)[C@H](CC(C)C)NC(=O)[C@H](CCCCN)NC(=O)[C@H](C)NC(=O)c1ccc(OC)cc1)C(=O)N[C@H](CC(C)C)C(N)=O
B13 gave an MCR Antagonism IC50 nM In Xenopus of 96 nM.

B14: S-114 (peptide)
peptide: {Benzoyl(4-OMe)}-RKLL[dNal]I[dL]-NH2
With B14 the MCR Antagonism IC50 nM In Xenopus was 166 nM.

B15: sauvagine (peptide, UniProt P01144 1-40, looked up)
peptide: QGPPISIDLSLELLRKMIEIEKQEKEKQQAANNRLLLDTI
B15 gave an IC50 in the frog MCR assay of over 10000 nM.

B16: Ac-Arg-Tyr-Tyr-Arg-Trp-Lys-NH2 (peptide)
chain: Ac-RYYRWK-NH2
In the case of B16, the IC50 nM in Frog Melanophore Assay is reported as 1050 nM.

B17: S-165 (peptide)
peptide: {Benzoyl(4-OMe)}-RKLA[d2Thi]I[dL]-NH2
SMILES: CC[C@H](C)[C@H](NC(=O)[C@@H](Cc1cccs1)NC(=O)[C@H](C)NC(=O)[C@H](CC(C)C)NC(=O)[C@H](CCCCN)NC(=O)[C@H](CCCNC(=N)N)NC(=O)c1ccc(OC)cc1)C(=O)N[C@H](CC(C)C)C(N)=O
B17 showed an MCR Antagonism IC50 nM In Xenopus of 282 nM.

B18: SQW-8 (peptide)
peptide: {Benzoyl(3-OMe)}-RAIRPKL-NH2
SMILES: CC[C@H](C)[C@H](NC(=O)[C@H](C)NC(=O)[C@H](CCCNC(=N)N)NC(=O)c1cccc(OC)c1)C(=O)N[C@@H](CCCNC(=N)N)C(=O)N1CCC[C@H]1C(=O)N[C@@H](CCCCN)C(=O)N[C@@H](CC(C)C)C(N)=O
B18 showed an MCR IC50 nM: antagonism of α-MSH (600 pM) darkening of frog melanophores of 75 nM.

B19: S-160 (peptide)
peptide: {Benzoyl(4-OMe)}-RKAL[d2Thi]I[dL]-NH2
SMILES: CC[C@H](C)[C@H](NC(=O)[C@@H](Cc1cccs1)NC(=O)[C@H](CC(C)C)NC(=O)[C@H](C)NC(=O)[C@H](CCCCN)NC(=O)[C@H](CCCNC(=N)N)NC(=O)c1ccc(OC)cc1)C(=O)N[C@H](CC(C)C)C(N)=O
B19 gave an MCR Antagonism IC50 nM In Xenopus of 197 nM.

B20: mystixin-7 (S-21) (peptide)
peptide: {Benzoyl(4-OMe)}-RKLL[d2Thi]I[dL]-NH2
SMILES: CC[C@H](C)[C@H](NC(=O)[C@@H](Cc1cccs1)NC(=O)[C@H](CC(C)C)NC(=O)[C@H](CC(C)C)NC(=O)[C@H](CCCCN)NC(=O)[C@H](CCCNC(=N)N)NC(=O)c1ccc(OC)cc1)C(=O)N[C@H](CC(C)C)C(N)=O
Binder B20 has an MCR Antagonism IC50 nM In Xenopus of 237 nM.

B21: SQW-9 (peptide)
peptide: {Benzoyl(3-OMe)}-RRARPKL-NH2
SMILES: COc1cccc(C(=O)N[C@@H](CCCNC(=N)N)C(=O)N[C@@H](CCCNC(=N)N)C(=O)N[C@@H](C)C(=O)N[C@@H](CCCNC(=N)N)C(=O)N2CCC[C@H]2C(=O)N[C@@H](CCCCN)C(=O)N[C@@H](CC(C)C)C(N)=O)c1
B21 showed an MCR IC50 nM: antagonism of α-MSH (600 pM) darkening of frog melanophores of 155 nM.

B22: S-117 (peptide)
peptide: {Benzoyl(4-OMe)}-RKLL[dW]I[dL]-NH2
SMILES: CC[C@H](C)[C@H](NC(=O)[C@@H](Cc1c[nH]c2ccccc12)NC(=O)[C@H](CC(C)C)NC(=O)[C@H](CC(C)C)NC(=O)[C@H](CCCCN)NC(=O)[C@H](CCCNC(=N)N)NC(=O)c1ccc(OC)cc1)C(=O)N[C@H](CC(C)C)C(N)=O
For B22, the MCR Antagonism IC50 nM In Xenopus was 22 nM.

B23: S-167 (peptide)
peptide: {Benzoyl(4-OMe)}-AKLL[d2Thi]I[dL]-NH2
SMILES: CC[C@H](C)[C@H](NC(=O)[C@@H](Cc1cccs1)NC(=O)[C@H](CC(C)C)NC(=O)[C@H](CC(C)C)NC(=O)[C@H](CCCCN)NC(=O)[C@H](C)NC(=O)c1ccc(OC)cc1)C(=O)N[C@H](CC(C)C)C(N)=O
B23 was tested, and the MCR Antagonism IC50 nM In Xenopus was 1200 nM.

B24: S-162 (peptide)
peptide: {Benzoyl(4-OMe)}-RKLL[d2Thi]I[dA]-NH2
SMILES: CC[C@H](C)[C@H](NC(=O)[C@@H](Cc1cccs1)NC(=O)[C@H](CC(C)C)NC(=O)[C@H](CC(C)C)NC(=O)[C@H](CCCCN)NC(=O)[C@H](CCCNC(=N)N)NC(=O)c1ccc(OC)cc1)C(=O)N[C@H](C)C(N)=O
Binder B24 has an MCR Antagonism IC50 nM In Xenopus of 43 nM.

B25: SQW-2 (peptide)
peptide: {Benzoyl(4-OMe)}-RRI[dR]P[dK][dL]-NH2
SMILES: CC[C@H](C)[C@H](NC(=O)[C@H](CCCNC(=N)N)NC(=O)[C@H](CCCNC(=N)N)NC(=O)c1ccc(OC)cc1)C(=O)N[C@H](CCCNC(=N)N)C(=O)N1CCC[C@H]1C(=O)N[C@H](CCCCN)C(=O)N[C@H](CC(C)C)C(N)=O
In the case of B25, the MCR IC50 nM: antagonism of α-MSH (600 pM) darkening of frog melanophores is reported as 114 nM.

B26: S-116 (peptide)
peptide: {Benzoyl(4-OMe)}-RKLL[dY]I[dL]-NH2
SMILES: CC[C@H](C)[C@H](NC(=O)[C@@H](Cc1ccc(O)cc1)NC(=O)[C@H](CC(C)C)NC(=O)[C@H](CC(C)C)NC(=O)[C@H](CCCCN)NC(=O)[C@H](CCCNC(=N)N)NC(=O)c1ccc(OC)cc1)C(=O)N[C@H](CC(C)C)C(N)=O
In the case of B26, the MCR Antagonism IC50 nM In Xenopus is reported as 77 nM.
